Experiments:
CD33 = target: T1, CD33 (Homo sapiens, UniProt P20138); assay: Binding to CD33-positive HL-60 cells by flow cytometry; details: FIG. 2
T1 construct: endogenous in cells; host or cells: HL-60 cells
Procedure: Binding to CD33-positive HL-60 cells were studied by flow cytometry. The determination of EC50 based on the plotted curve gives an approximate value for the affinity. The commercially available mouse anti human CD33 (BD Pharmingen; #555450, 1 mg/mL) was used as a reference antibody for assessment of the affinity, including a setup with a 50:50 mixture with the mAb to be analyzed. This assay was also used to confirm that target binding affinity was not negatively affected by conjugation with the chelator.
HL-60 cells were grown in Iscove's Modified Dulbecco's Medium (IMDM; Invitrogen; #12440-046) in the presence of 20% of fetal bovine serum and penicillin/streptomycin. […] Subsequently, 20 μL of the preparation of resuspended cells was diluted 1:500 in Coulter Isoton II Diluent, and counted using a Beckman Coulter Z2 instrument (Beckman Coulter; CA, USA). […]
The mAb or conjugate to be analyzed was prepared fresh form frozen stock by shifting the storage buffer to PBS, kept at 4° C., and used within a few days after preparation. […]
The cells were washed twice, as described above, and re-suspended in 200 μL PBS, supplemented with 0.1% BSA. All samples were analysed in 96-well round or conical bottom plates. Fluorescent signals were recorded on a Beckham Coulter Cell lab Quant SC flow cytometer (Beckman Coulter; CA, USA). […]

HL-60 tumour [1] = assay: Biodistribution in HL-60 tumour bearing nude mice; details: 15 kBq/animal intravenous, HL-60 xenograft
Excerpt: Female NMRI nude mice were xenografted with cells from the human HL-60 tumour cell line. […] 54 female NMRI nude mice (Taconic, Europe) were used in the study.
The animals were allowed an acclimation period of at least 5 days before entering the study and were at an age of 4 weeks before tumour inoculation. […] Animals were kept in individually ventilated cages (IVC, Scanbur) with HEPA filtered air and had ad libitum access to “Rat and mouse nr.3 Breeding” diet (Scanbur BK) and water acidified by addition of HCl to a molar concentration of 1 mM (pH 3.0). HL-60 cells (ATCC/United Kingdom; Catalog Number CCL-240) were grown and prepared for subcutaneous inoculation in IMDM (Invitrogen; #12440-046) in presence of 20% FCS and penicillin/streptomycin. […]
Animals were euthanized at predetermined time points post injection, and blood, muscle, femur, kidneys, lung, liver, stomach, small intestine, large intestine and tumour were collected. Tissues and blood samples were weighed, and the radioactivity in each sample was measured using gamma spectroscopy (HPGe15p or HPGe50p germanium detectors).
The measured radioactivity (Bq) was related to the radioactivity measured in 10% injection standard samples, and the percentage of Th-227 and Ra-223 were calculated and presented as % ID or % ID per gram of tissue.

[2] = tested on: CD33 positive HL-60 cells; assay: Th-227-induced cell cytotoxicity (ATP, CellTiter-Glo) in HL-60 cells; type: cell-based, human; details: 3 nM or 0.3 nM, 44 kBq/μg, up to day 7
Procedure: In vitro cell cytotoxicity was investigated in CD33 positive HL-60 cells. AGC0715 and the control trastuzumab conjugated AGC0015 were used to chelate Th-227 to a specific activity of 44 kBq/μg. HL-60 cells were grown at 37° C. with 5% CO2, and split 1:5 three times a week. The day before the assay the culture medium (Iscove's Modified Dulbecco's Medium (IMDM) with 20% FBS and 1% Penicillin/Streptomycin) was replaced by new medium and the volume adjusted to give 400 000 cells per mL.
About, 1 600 000 cell (4 mL) were added to each well in a 6 well plate. The plate was incubated until next day for addition of labelled mAb, or culture medium. After adding labelled mAb, or culture medium, the plate was incubated for 4 additional hours. In one experiment AGC0715 or trastuzumab-AGC0015 was added to each well to a final concentration of 3 nM. In another experiment the final concentration was 0.3 nM.
Following incubation, the cells were washed twice in culture medium, and the ATP in the supernatant and in the pellet was measured. The cells were then split 1:2 and incubated in culture medium at 37° C. with 5% CO2. The same procedure, but with only one wash, was repeated at days 2, 4, and 7.

HL-60 tumour [3] = tested on: HL-60 tumour; set-up: species or system mice; details: mouse, in vivo
Procedure: Cell preparation and xenografting of female NMRI nude mice are done as described in Example 9. […] The mice have an approximated body weight of approximately 20 grams at the start of the study. […] Mice will be inoculated with tumour cells about 10 days before dosing in order to have mice with average size of tumours in the range from 75-150 mm3. Animals are randomized into 4 treatment groups and 3 control groups (n=10/group).
Mice in the treatment groups are injected into the tail vein with 100 μL containing 75 kBq/mL, 150 kBq/mL, 225 kBq/mL or 300 kBq/mL AGC0715-Th-227, to achieve 250, 500, 750 or 1000 kBq/kg body weight (b.w.). The mice in the control groups are administered either with vehicle only (buffer), non-radioactive antibody (AGC0715) or trastuzumab-Th-227, labelled to a specific activity of 500 kBq/kg (isotype control).
Appearance of tumours will carefully be monitored, and the tumours will be scored (if not large enough to be measured) or measured thrice a week according to the following scheme:
Tumour diameters will be measured in two dimensions using a digital caliper and the volume will be estimated by the following formula: L×W×[…] (Length×Width×½ Width). […] Body weights will be recorded once a week. […]
The mice will be terminated following maximal tumour size of 15 mm diameter. […] In case of observations of adverse clinical signs, these will be recorded as note to files. […]

T1 sequence (P20138 18-364): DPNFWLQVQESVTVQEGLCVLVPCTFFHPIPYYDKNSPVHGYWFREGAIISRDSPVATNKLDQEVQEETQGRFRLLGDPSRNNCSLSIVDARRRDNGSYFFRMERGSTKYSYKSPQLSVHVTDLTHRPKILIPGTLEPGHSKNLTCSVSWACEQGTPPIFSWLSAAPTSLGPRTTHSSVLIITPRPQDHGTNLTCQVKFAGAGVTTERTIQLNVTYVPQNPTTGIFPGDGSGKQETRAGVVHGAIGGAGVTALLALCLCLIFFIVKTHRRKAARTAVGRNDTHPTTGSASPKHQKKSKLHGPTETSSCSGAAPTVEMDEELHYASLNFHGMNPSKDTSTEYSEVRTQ

Molecule	binding affinity (CD33)	tumour targeting / build-up of radioactivity (HL-60 tumour [1])	cellular toxicity (cell viability by ATP) [2]	adverse clinical signs (HL-60 tumour [3])
AGC0715: AGC0700 conjugated to high-solubility ligand (12) (conjugate, chelator AGC0015 (12) conjugated; site not stated; none, one or two chelators on a chain) heavy: QVQLVQSGAEVKKPGSSVKVSCKASGYTFTDYNMHWVRQAPGQGLEWIGYIYPYNGGTGYNQKFKSKATITADESTNTAYMELSSLRSEDTAVYYCARGRPAMDYWGQGTLVTVSSASTKGPSVFPLAPSSKSTSGGTAALGCLVKDYFPEPVTVSWNSGALTSGVHTFPAVLQSSGLYSLSSVVTVPSSSLGTQTYICNVNHKPSNTKVDKKVEPKSCDKTHTCPPCPAPELLGGPSVFLFPPKPKDTLMISRTPEVTCVVVDVSHEDPEVKFNWYVDGVEVHNAKTKPREEQYNSTYRVVSVLTVLHQDWLNGKEYKCKVSNKALPAPIEKTISKAKGQPREPQVYTLPPSRDELTKNQVSLTCLVKGFYPSDIAVEWESNGGQPENNYKTTPPVLDSDGSFFLYSKLTVDKSRWQQGNVFSCSVMHEALHNHYTQKSLSLSPG light: DIQMTQSPSSLSASVGDRVTITCRASESVDNYGISFMNWFQQKPGKAPKLLIYAASNQGSGVPSRFSGSGSGTDFTLTISSLQPDDFATYYCQQSKEVPWTFGQGTKVEIKRTVAAPSVFIFPPSDEQLKSGTASVVCLLNNFYPREAKVQWKVDNALQSGNSQESVTEQDSKDSTYSLSSTLTLSKADYEKHKVYACEVTHQGLSSPVTKSFNRGEC	comparable to the non-conjugated AGC0700	Build-up of radioactivity was seen in the tumour, but in no normal tissue		
AGC0715-Th-227: AGC0715 antibody-chelator conjugate chelated with Th-227 (conjugate, chelator AGC0015 (12) conjugated, chelating Th-227; site not stated) heavy: QVQLVQSGAEVKKPGSSVKVSCKASGYTFTDYNMHWVRQAPGQGLEWIGYIYPYNGGTGYNQKFKSKATITADESTNTAYMELSSLRSEDTAVYYCARGRPAMDYWGQGTLVTVSSASTKGPSVFPLAPSSKSTSGGTAALGCLVKDYFPEPVTVSWNSGALTSGVHTFPAVLQSSGLYSLSSVVTVPSSSLGTQTYICNVNHKPSNTKVDKKVEPKSCDKTHTCPPCPAPELLGGPSVFLFPPKPKDTLMISRTPEVTCVVVDVSHEDPEVKFNWYVDGVEVHNAKTKPREEQYNSTYRVVSVLTVLHQDWLNGKEYKCKVSNKALPAPIEKTISKAKGQPREPQVYTLPPSRDELTKNQVSLTCLVKGFYPSDIAVEWESNGGQPENNYKTTPPVLDSDGSFFLYSKLTVDKSRWQQGNVFSCSVMHEALHNHYTQKSLSLSPG light: DIQMTQSPSSLSASVGDRVTITCRASESVDNYGISFMNWFQQKPGKAPKLLIYAASNQGSGVPSRFSGSGSGTDFTLTISSLQPDDFATYYCQQSKEVPWTFGQGTKVEIKRTVAAPSVFIFPPSDEQLKSGTASVVCLLNNFYPREAKVQWKVDNALQSGNSQESVTEQDSKDSTYSLSSTLTLSKADYEKHKVYACEVTHQGLSSPVTKSFNRGEC		specific tumour uptake	resulted in cellular toxicity	No adverse clinical sigs

Source: patent US9827336B2, “Radio-pharmaceutical complexes” (Bayer AS, priority 2012, dated 2017)
